# Reference: IntAct's records for PubMed 20708156
# B1: F-box/WD repeat-containing protein 1A (Homo sapiens), Q9Y297 (parent)
# chain: MDPAEAVLQEKALKFMCSMPRSLWLGCSSLADSMPSLRCLYNPGTGALTAFQNSSEREDCNNGEPPRKIIPEKNSLRQTYNSCARLCLNQETVCLASTAMKTENCVAKTKLANGTSSMIVPKQRKLSASYEKEKELCVKYFEQWSESDQVEFVEHLISQMCHYQHGHINSYLKPMLQRDFITALPARGLDHIAENILSYLDAKSLCAAELVCKEWYRVTSDGMLWKKLIERMVRTDSLWRGLAERRGWGQYLFKNKPPDGNAPPNSFYRALYPKIIQDIETIESNWRCGRHSLQRIHCRSETSKGVYCLQYDDQKIVSGLRDNTIKIWDKNTLECKRILTGHTGSVLCLQYDERVIITGSSDSTVRVWDVNTGEMLNTLIHHCEAVLHLRFNNGMMVTCSKDRSIAVWDMASPTDITLRRVLVGHRAAVNVVDFDDKYIVSASGDRTIKVWNTSTCEFVRTLNGHKRGIACLQYRDRLVVSGSSDNTIRLWDIECGACLRVLEGHEELVRCIRFDNKRIVSGAYDGKIKVWDLVAALDPRAPAGTLCLRTLVEHSGRVFRLQFDEFQIVSSSHDDTILIWDFLNDPAAQAEPPRSPSRTYTYISR
# Variants of: B1
# Conditions: with mdm2_human MDM2, Q00987
# Sequence of mdm2_human MDM2, Q00987 (Q00987 whole entry, looked up): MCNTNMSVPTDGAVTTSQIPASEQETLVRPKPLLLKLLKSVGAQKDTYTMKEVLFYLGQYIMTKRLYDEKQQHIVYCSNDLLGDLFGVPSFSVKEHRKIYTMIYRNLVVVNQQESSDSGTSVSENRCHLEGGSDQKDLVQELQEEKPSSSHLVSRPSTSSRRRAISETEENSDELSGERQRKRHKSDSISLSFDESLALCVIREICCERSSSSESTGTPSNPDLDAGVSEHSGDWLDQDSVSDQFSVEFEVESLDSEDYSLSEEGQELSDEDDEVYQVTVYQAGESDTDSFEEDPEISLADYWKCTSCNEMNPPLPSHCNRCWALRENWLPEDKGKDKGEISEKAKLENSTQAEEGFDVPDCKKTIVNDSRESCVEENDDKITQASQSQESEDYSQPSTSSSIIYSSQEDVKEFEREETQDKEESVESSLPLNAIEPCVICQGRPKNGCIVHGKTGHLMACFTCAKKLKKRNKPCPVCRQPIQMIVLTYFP
row,effect of a mutation on the interaction,Variant
1,decreasing interaction,R475A
